Experimental data: publication doi:10.1101/2021.07.20.453058 (bioRxiv, 2021)
Each block holds one molecule with its values, some of them ahead of it.

Legend:
Experiment in all cases: native gel or EMSA
[1] = target: KaiA3-His6 (Synechocystis sp. PCC 6803)
[2] = target: KaiB3 (recombinant, GST-tag removed) (Synechocystis sp. PCC 6803)
[3] = target: Strep-KaiC3 (Synechocystis sp. PCC 6803)
[4] = target: the molecule itself

Molecule: KaiA3-His6 (natural protein)
stoichiometry N [1]: > 2

B1: Synechococcus KaiA (recombinant, GST-tag removed) (natural protein, Synechococcus elongatus PCC 7942, UniProt Q79PF6 1-284, looked up)
chain: MLSQIAICIWVESTAILQDCQRALSADRYQLQVCESGEMLLEYAQTHRDQIDCLILVAANPSFRAVVQQLCFEGVVVPAIVVGDRDSEDPDEPAKEQLYHSAELHLGIHQLEQLPYQVDAALAEFLRLAPVETMADHIMLMGANHDPELSSQQRDLAQRLQERLGYLGVYYKRDPDRFLRNLPAYESQKLHQAMQTSYREIVLSYFSPNSNLNQSIDNFVNMAFFADVPVTKVVEIHMELMDEFAKKLRVEGRSEDILLDYRLTLIDVIAHLCEMYRRSIPRET
stoichiometry N [4]: 2

Now from value to molecule:

stoichiometry N [2]: 4
Molecule: KaiB3 (recombinant, GST-tag removed) (natural protein)

stoichiometry N [3]: 6
Molecule: Strep-KaiC3 (natural protein)
